Test [1] addresses adenovirus E1B-55 kDa protein (Ad5) (UniProt P03243). As to the kind of experiment: cell-based or functional assay.
Test [2] concerns the target T1, adenovirus E1B-55 kDa protein (Ad5, UniProt P03243 1-496).
T1 sequence: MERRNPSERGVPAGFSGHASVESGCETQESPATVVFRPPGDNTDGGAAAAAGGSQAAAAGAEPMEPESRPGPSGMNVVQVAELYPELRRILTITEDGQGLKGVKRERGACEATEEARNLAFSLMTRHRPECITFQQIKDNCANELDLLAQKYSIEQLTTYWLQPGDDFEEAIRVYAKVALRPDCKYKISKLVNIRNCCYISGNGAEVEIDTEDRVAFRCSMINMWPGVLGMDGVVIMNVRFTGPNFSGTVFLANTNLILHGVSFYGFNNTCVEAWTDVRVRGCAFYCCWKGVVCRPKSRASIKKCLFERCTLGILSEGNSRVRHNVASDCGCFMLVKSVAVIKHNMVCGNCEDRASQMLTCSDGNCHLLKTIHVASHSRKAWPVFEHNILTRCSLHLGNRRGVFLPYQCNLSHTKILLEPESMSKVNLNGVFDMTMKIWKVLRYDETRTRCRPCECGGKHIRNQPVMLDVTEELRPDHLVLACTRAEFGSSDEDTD
The test can be described thus: cell-based or functional assay.

“E4orf6 variant R240,244,251A (from UniProt P03239 1-294)”: in test [1], the HeLa cells in which the E1B-55 kDa protein was retained is > 62 % of cells, the cells in which the E1B-55 kDa protein was relocalized to the nucleus was 60 % of cells and the value for nuclear E1B-55 kDa protein retention worked out at 62%.
For “E4orf6 variant R240,251A (from UniProt P03239 1-294)”, the cells with the E1B-55 kDa protein retained in the nucleus in test [1] was 70 % of cells.
“E4orf6 variant R240A (from UniProt P03239 1-294)”: the cells with the E1B-55 kDa protein retained in the nucleus in test [1] is 90 % of cells.
Regarding “E4orf6 variant R240E (from UniProt P03239 1-294)”, in test [1], the cells with predominantly cytoplasmic E1B-55 kDa protein is 46 % of cells, the cells with predominantly nuclear E1B-55 kDa protein was 55 % of cells and the cells with uniform distribution of the E1B-55 kDa protein was 4 % of cells.
For the molecule “E4orf6 variant R244E (from UniProt P03239 1-294)”, in test [1], the cells with predominantly nuclear E1B-55 kDa protein is 85 % of cells and the value for nuclear E1B-55 kDa protein retention came to 91%.
Consider “E4orf6 variant R248,251A (from UniProt P03239 1-294)”, for which, in test [1], the HeLa cells in which the E1B-55 kDa protein was retained was > 62 % of cells, the cells with the E1B-55 kDa protein retained in the nucleus was 82 % of cells and the value for nuclear E1B-55 kDa protein retention came to 80%.
Take “E4orf6 variant R248E (from UniProt P03239 1-294)”: in test [1], the cells with predominantly nuclear E1B-55 kDa protein was 85 % of cells.
As for “E4orf6 variant R251A (from UniProt P03239 1-294)”, in test [1], the HeLa cells in which the E1B-55 kDa protein was retained is > 62 % of cells and the value for nuclear E1B-55 kDa protein retention stood at 99%.
As to “E4orf6 variant R251E (from UniProt P03239 1-294)”, in test [1], the cells with predominantly nuclear E1B-55 kDa protein was 85 % of cells.

B1: wild-type adenovirus E4orf6 protein (other)
chain: MTTSGVPFGMTLRPTRSRLSRRTPYSRDRLPPFETETRATILEDHPLLPECNTLTMHNVSYVRGLPCSVGFTLIQEWVVPWDMVLTREELVILRKCMHVCLCCANIDIMTSMMIHGYESWALHCHCSSPGSLQCIAGGQVLASWFRMVVDGAMFNQRFIWYREVVNYNMPKEVMFMSSVFMRGRHLIYLRLWYDGHVGSVVPAMSFGYSALHCGILNNIVVLCCSYCADLSEIRVRCCARRTRRLMLRAVRIIAEETTAMLYSCRTERRRQQFIRALLQHHRPILMHDYDSTPM
For B1, the “value for nuclear E1B-55 kDa protein retention” value (“value” for short) in test [2] amounted to 100%.

B2: E4orf6 variant R241E (other)
chain: MTTSGVPFGMTLRPTRSRLSRRTPYSRDRLPPFETETRATILEDHPLLPECNTLTMHNVSYVRGLPCSVGFTLIQEWVVPWDMVLTREELVILRKCMHVCLCCANIDIMTSMMIHGYESWALHCHCSSPGSLQCIAGGQVLASWFRMVVDGAMFNQRFIWYREVVNYNMPKEVMFMSSVFMRGRHLIYLRLWYDGHVGSVVPAMSFGYSALHCGILNNIVVLCCSYCADLSEIRVRCCARETRRLMLRAVRIIAEETTAMLYSCRTERRRQQFIRALLQHHRPILMHDYDSTPM
B2: the “value” value in test [2] was 0.8%.

B3: E4orf6 variant R241A (other)
chain: MTTSGVPFGMTLRPTRSRLSRRTPYSRDRLPPFETETRATILEDHPLLPECNTLTMHNVSYVRGLPCSVGFTLIQEWVVPWDMVLTREELVILRKCMHVCLCCANIDIMTSMMIHGYESWALHCHCSSPGSLQCIAGGQVLASWFRMVVDGAMFNQRFIWYREVVNYNMPKEVMFMSSVFMRGRHLIYLRLWYDGHVGSVVPAMSFGYSALHCGILNNIVVLCCSYCADLSEIRVRCCARATRRLMLRAVRIIAEETTAMLYSCRTERRRQQFIRALLQHHRPILMHDYDSTPM
In the case of B3, the “value” value in test [2] was 72%.
